Test results: the nanobody polyreactivity screen of Harvey et al. (2022)

Assay: yeast display, Sf9 membrane polyspecificity reagent, FACS + sequencing; frameworks hold sequencing errors
Summary of the method: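 Using colony PCR, genes from sorted yeast display clones were amplified, then sequenced on MiSeq at 2 × 250 and filtered by CDR length. The clones had been stained with 10% biotinylated, detergent-solubilized Sf9 membrane reagent for 1 hour at 4 °C and sorted by FACS into low and high (top ~1%) gates on anti-HA and streptavidin fluorescence. Polyreactivity labels come from the gate of origin.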

Sequence: QVQLVESGGGLVQAGGSLRLSCAASGRTFEGNAMGWYRQAPGKERELVAAITSGGRTNYADSVKGRFTISRDNAKNTVYLQMNSLKPEDTAVYYCAKVYRSIGPNVSRYGLSYYYWGLGTQVTVSS
- polyreactivity (PSR sort gate): low polyreactivity

Sequence: QVQLVESGGGLVQAGGSLRLSCAASGGTFDYYAMGWYRQAPGKERELVAAISTSGGRTYYADSVKGRFTISRDNAKNTVYLQMNSLTPEDTAVYYCAALSRRAKYDSFYYWGQGTQVTVSS
- polyreactivity (PSR sort gate): high polyreactivity

Sequence: QVQLVESGGGLVQAGGSLRLSCAASGLIFSPYAMGWYRQAPGKEREFVAAITSRGGTYYADSVKGRFTISRDNAKNTVYLQMNSLKPEDTAVYYCAAKSLYSKRQQYEYWGQGTQVTVSS
- polyreactivity (PSR sort gate): low polyreactivity

Sequence: QVQLVESGGGLVQAGGSLRLSCAASGRTFYKYAMGWSRQAPGKERELVAAISSDGTTYYADSVKGRFTISRDNAKNTVYLQMNSLKPEDTAVYYCAADPPPPFLYVSVQEYDYWGQGTQVTVSS
- polyreactivity (PSR sort gate): low polyreactivity

Sequence: QVHLVESGGGLVQAGGSLRLSCAASGFTFRRNAMGWYRQAPGKERELVAAITRSGGVTYYADSVKGRFTISRDNAKNTVYLQMNSMKPEDTAVYYCATQARLYGGYDRYAGSYDYWGQGTQVTVSS
- polyreactivity (PSR sort gate): high polyreactivity

Sequence: QVQLQESGGVQAGGSLRLSSAASSYISRSDVMGWYRQAPGKERELVATINNGTITYYADSVKGRFTISRDNAKNTVYLQMNSLKPEDTAVHYFAVVQSDTDSLYYWGHGTQVTVSS
- polyreactivity (PSR sort gate): low polyreactivity

Sequence: QVQLVESGGGLVQAGGSLRLSCAASGLTFKSYAMGWYRQAPGKETELVAAISWRGGRTYYADSVKGRFTISRDNAKNTVYLQMNSLKPEDTAVYYCNARSQQWWLSRYNYWGQGTQVTVSS
- polyreactivity (PSR sort gate): high polyreactivity

Sequence: QVQLVESGGGLVQAGGSLRLSCAASGRTFATYAMGWYRQAPGKERELVAAITSGGSTYYADSVKGRFTISRDNAKNTVYLQMNSLKPEDTAVYYCAAARKYYGYNYWGQGTQVTVSS
- polyreactivity (PSR sort gate): high polyreactivity

Sequence: QVQLVESGGGLVQAGGSLRLSCAASGRILKSYAMGWCRHAPGKERELVAAIRSGGSTYYADSVKGRFTISRDNAKNTVYLQMYSLKPEDTAVYYCNRVTRTWKVNYHYWGQGTQVTVSS
- polyreactivity (PSR sort gate): high polyreactivity

Sequence: QVQLVESGGGLVQEGGSLRLSCAASGSIFNTYAMGRYRQAPGKEREMVAGITKTGSRTYYADSVKGRFTISRDNAKNTVYLQIHILKPEDTAVYYCNARIWPRSYRYDYWGQGTQVTVSS
- polyreactivity (PSR sort gate): high polyreactivity

Sequence: QVQLVESGVGLVQAGGSLRLSCAASGSNSGLYAMGWYRQAPGKERELVAAIRWSGGSTRYADSVKGRFTISRDNAKNTVYLLMNSLKPEDTAVYYCAADFYSKFVRFGYWGQGTQVTVSS
- polyreactivity (PSR sort gate): high polyreactivity

Sequence: QVQLVESGGGLVQAGGSLRLTCAASGRTFAYNAMGWYRQAPGKERELVAAITSSGTSTYYADSVKGRFTISRDNAKNTVYLQINCLKPEDTAVYYCAGRQSQKYGLFYYWGQGTQVTVSS
- polyreactivity (PSR sort gate): high polyreactivity

Sequence: QVQIVESGGRIVQAGGSIRLSCAASGSTFLFYAMGRSRQAPGKERQLVAAISYSGGSTFYADSVKGRFTISRDNAKNTVYLQMNSLKPEDTAVYYCAAESYSYGFTHEYWGQGTQETVSS
- polyreactivity (PSR sort gate): high polyreactivity

Sequence: QVQLEDSGGGLVQAGGSLRLSCAASGRIFYTYAMGWYRQAPGKERELVAAINRSGSSTYYADSVKGRFTISRDNAKNNVYLQMNSLKPEDTAVYYCNAQSYLYYGWVLTDVDYWGQGTQVTVSS
- polyreactivity (PSR sort gate): low polyreactivity

Sequence: QVQLVESGGGLVQAGGRLRLSCAASGFTFYDNAMGWYRQAPGKERELVAGINSGDSTFYAVSVKGRITISRDNAKNTVYLQMTSLKPEDTGFYYGAADWAWLQWSYDYWGQGTQVTVSS
- polyreactivity (PSR sort gate): low polyreactivity

Sequence: QVQLVESGGGLVQAGGSLRLSCAASGITFGRNTMGWYRPAPGKERELVAAIDSGGNTYADSVKGRFTISRDNAKNTVYLQMNSLKPEDTAVYYCAVDGGEFSSYGYWGQGTQVTVSS
- polyreactivity (PSR sort gate): low polyreactivity

Sequence: QVQLVESGGGLVEAGGSLRLSCAASGGIFPVNAIGWYRQAPGKERELVATITYDGANTYYADSVKGRFTISRDNAKNTVYLQMNRLKPEDTAVYYCAKDRLSFYGYISYIGYGYDYWGQGTQVTVSS
- polyreactivity (PSR sort gate): low polyreactivity

Sequence: QVQLQESVVGLEQAGGSLRLSCAASGNIFPTDRMGWYRQAPGKELEFVATISHGGSTNYADSVKGRFTISRVNAKNTVYLQLNSLKPEDTAVYYCAVWSLGRWRHYYWGQGTQVTVSS
- polyreactivity (PSR sort gate): low polyreactivity

Sequence: QVQLVESGGGLVQAGGSLRLSCAASGGIFTSYDMGWYRQAPAKEREFVAGISDSGGSTYYADSVKGRFTISRDNAKNTVYLQMNSLKPEDTAVYYFAADAWYVWEYWWQTEDDYWGQGTEVTVSS
- polyreactivity (PSR sort gate): high polyreactivity

Sequence: QVQLVESGGGLVQAGGSLRLSCAASGSTSVYYAMGWYRQAPGKERELVAAITSGGRTYYADSVKGRFTISRDNAKNTVYLQMNSLKPEDTAVYYCNKGLYYFLPTKFRLDYWGQGTQVTVSS
- polyreactivity (PSR sort gate): high polyreactivity

Sequence: QVQLEESGGGLVQAGGSLRLSCAASGSTFHINAMGWYRQAPGKEREFVADINWSGGSTYYADSVKVSFTISRDNAKNTVYLQMNSLKPADTAVYYFAADVGVFTYSPYDAGEHDYWGQGTLVTVSS
- polyreactivity (PSR sort gate): low polyreactivity

Sequence: QVQLVESGGGLVQAGGSLRLSCAASGSTFGPNAMGWYRQAPGKERELVATISFRGGTTYYADSVKGRFTISRDNAKNTVYLQMNSLKPEDTAVYYCAVKVGYVRLLYHYYYWGQGTQVTVSS
- polyreactivity (PSR sort gate): high polyreactivity

Sequence: QVQLVESGGGLVQAGGSLRLSCAASGSIITWYAMGWYRQAPGKERELVAAISNSDSSTYYADSVKGRFTISRDNAKNTVYLQMNILKPEDTAVYYCAAEYGLAWYNFEHWGQGTQVTVSS
- polyreactivity (PSR sort gate): high polyreactivity

Sequence: QVQLVESGGGLVQAGGSLRLSCAASGRIFDGNAMGWYRQAPGKERELVAAISRIGGTYYADSVKGRFTISRDNAKNTVYLQMNSLKPEDTAVYYCAADPSSVGYHVEYDYWGQGTQVTVSS
- polyreactivity (PSR sort gate): low polyreactivity

Sequence: QVQLVESGGGLVQAGGSLRLSCAASGSTFYLYAMGWYRQAPGKEREFVARISASGGNTYYADSVKGRFTISRDNAKNTVYLQMNSLKPEDTAVYSCAARVRGRNASDYDYYYWGQGTQVTVSS
- polyreactivity (PSR sort gate): high polyreactivity

Sequence: QVQLVESGGGLVQAGGSLRISCAASGSIFLKYAMGWYRQAPGKERELVAAITWTDDRTYYADSVKGRFTISRDNAKNTVYLQMNSLKPEDTAVYYCNTATSKSSYRHYDYWGQGTQVTVSS
- polyreactivity (PSR sort gate): high polyreactivity

Sequence: QVQLVESGGGLVQAGGSLRLSCAASGRISWGYAMGWYRQAPGKERELVAVINFNGGRTYYADSVKGRFTISRDNAKNTVYLQMNSLKAEDTAVYYCAADSGYEYDYWGQGTQVTVSS
- polyreactivity (PSR sort gate): low polyreactivity

Sequence: QVQLVESGGGLVQPGGSLRLSCAASGSIFPYYAKGWYRKAPGKERELVADITSSGGSTYYADSVMGRFTISRDNAKNTVYLQMNSLKPEDTAVYYCAADGAVVSSSRKFGYWGQGTQVTVSS
- polyreactivity (PSR sort gate): low polyreactivity

Sequence: QVQHVESGGGLVQAGGSLRLSCAASGYISVGYAMGWSRQAPGKERELVAAITESGGSTYYADSVKGRFTISRDNAKNTVYLQMNSLKPEDTAVYYCAADVIYEDRMDYWGQGTQVTVSS
- polyreactivity (PSR sort gate): low polyreactivity

Sequence: QVQLVESGGALVQAGGSLRLSCAASGSTFKVYAMGWYRQAPGKERELVAAISFSGGTTYYADSVNGRFTISRDYAKNTVSLQRNSLKPEDTAVFYCAADGSTWYSYYYWGLGTQVTVSS
- polyreactivity (PSR sort gate): high polyreactivity

Sequence: QVQLVESGGGLVQAGGSLRLSCDASGSIFDYNTMGWYRQAPGKERELIAVISGTGGSTYYGDSVKGRFTISRDNAKNTVYLEMNSLKPEDTAVYYCAAAWYYSSRAFHATWGHDYWGQGTQVTVSS
- polyreactivity (PSR sort gate): low polyreactivity

Sequence: QVQHVESGGGLVQAGGRLRLSCAASGSIFVAYAMGWSRTAPGKERELVAAITYSAGSTYYADSVKGRITISRDNAKNTVYLQMNSLKPEDTAVYYCAADAMVFSFIGYEYWGQGTQVTVSS
- polyreactivity (PSR sort gate): low polyreactivity

Sequence: HVQLVESGGGLVQAGGSLRLSCAASGRTFVVYAMGWDRQAPGKERELVAAITSSGGSTYYADSVKGRFTISRDNAKNTVYLQMNSLKPEDTAVYYCNRVYVRAGVSVAYNYWGQGTQVTVSS
- polyreactivity (PSR sort gate): high polyreactivity

Sequence: QVQLVESGGGLVQAGGSLRLSCAASGSIFGRYAMGWYRQAPGKERELVASISRRCGSTYYADSVKGRFTISRDNAKNTVYLQMNRLKPEDTAVYDCNVAPWSASSANLEDYWGQGNQVTVSS
- polyreactivity (PSR sort gate): high polyreactivity

Sequence: QVQLVESGGGLVQAGGSLRFSCAASGITFTEYAMGWYTQAPGTERELVAAITGSGTSTYYADSVKGRFTISRDNAKNTVYLHMNSLKPEDTAVYYCAARTRGTAYNYWGQGTQVTVSS
- polyreactivity (PSR sort gate): high polyreactivity

Sequence: QVQLVESGGGLVQAGGSLRLSCAASGSIFPFNAMGWYRQAPGKERELVAAITRSGGSTYYADSVKGRFTISRDNAKNTVYLQMNSLKPEDTAVYYCANDPEWPLPDFYYWGQGTQVTVSS
- polyreactivity (PSR sort gate): low polyreactivity

Sequence: QVQLVESGGGLVQAGCSLRLSCAASGRTFSSYAMGWYRQSPGKERELVAAINRGGGSTYYADSVKGRFTISRDNAKNTVYLQMNSLKPEDTAVYYCNARSKRTYEYDYWGQGTQVTVSS
- polyreactivity (PSR sort gate): high polyreactivity

Sequence: QVQLVESGRGLDQAGGSLRLNCAASGSIFVRYAMGLNRQAPGKERELVAGITNSGGSTYYADSVKGRFTISRDNAMNTVYLQMNSLKPEDTAVYYCAADAGGWWYKYYYWGQGTQVTVSS
- polyreactivity (PSR sort gate): high polyreactivity

Sequence: QVQLVESGGGLVQAGGSLRLSCAASGSTFPYNAMGWYRQAPGKDRELVAAITWRAGRTYYADSVKGRFTISRDNAKNTVYLQMNSLKPEDTAVYYCAKSYQRGVNHYEYWGQGTQVTVSS
- polyreactivity (PSR sort gate): high polyreactivity

Sequence: QVQLVESGGGLVQAGGSLRLSCAASGSTYTNAMGWYRPAPGKERELVAAITWSGGTTYYADSVKGRLTISRDNAKNTVYLQMNSLKPEDTAVYYCAAEYRWYSRYFNYWGQGTQVTVSS
- polyreactivity (PSR sort gate): high polyreactivity

Sequence: QVQLVESGGGLVQAGGSLRLSCAASGSTFPGNAMGWYRQAPGKERELVAAINWSGDSTYYADSVKGRFTISRDNAKNTVYLQMNSLKPEDTAVYYCAAYGDGYYYWGQGTQVTVSS
- polyreactivity (PSR sort gate): low polyreactivity

Sequence: QGQLVESGGGLVQAGGSLRLSCAASGFTFVYNAMGWYRQAPGKERELVAAITSGGNTYYADSVKGRFTISRDNAKNTVYLQMNSLKPEDTAVYYCAALSYYRFSQEDDYWGQGTQVTVSS
- polyreactivity (PSR sort gate): high polyreactivity

Sequence: QVQLVESGVGLVKAGGTLRLSCAASGGIFDYNAMGWYRQAPGKERELVAYYADSVKGRFTLSRDNAKNTVYLQMNSLKPEDTAVYYCAVDGGEFSSYGYWGQGTQVTVSS
- polyreactivity (PSR sort gate): low polyreactivity
